Data published in patent US20110143953A1.

Tests used:
transferrin, P02787 [1] = assay: SPR
[2] = biological target: AKT1 (as used in SPR), P31749; assay: SPR
transferrin, P02787 [3] = assay: SPR, transferrin immobilized, Kd from kinetics

Sequence of transferrin, P02787 (P02787 20-698 limits assumed): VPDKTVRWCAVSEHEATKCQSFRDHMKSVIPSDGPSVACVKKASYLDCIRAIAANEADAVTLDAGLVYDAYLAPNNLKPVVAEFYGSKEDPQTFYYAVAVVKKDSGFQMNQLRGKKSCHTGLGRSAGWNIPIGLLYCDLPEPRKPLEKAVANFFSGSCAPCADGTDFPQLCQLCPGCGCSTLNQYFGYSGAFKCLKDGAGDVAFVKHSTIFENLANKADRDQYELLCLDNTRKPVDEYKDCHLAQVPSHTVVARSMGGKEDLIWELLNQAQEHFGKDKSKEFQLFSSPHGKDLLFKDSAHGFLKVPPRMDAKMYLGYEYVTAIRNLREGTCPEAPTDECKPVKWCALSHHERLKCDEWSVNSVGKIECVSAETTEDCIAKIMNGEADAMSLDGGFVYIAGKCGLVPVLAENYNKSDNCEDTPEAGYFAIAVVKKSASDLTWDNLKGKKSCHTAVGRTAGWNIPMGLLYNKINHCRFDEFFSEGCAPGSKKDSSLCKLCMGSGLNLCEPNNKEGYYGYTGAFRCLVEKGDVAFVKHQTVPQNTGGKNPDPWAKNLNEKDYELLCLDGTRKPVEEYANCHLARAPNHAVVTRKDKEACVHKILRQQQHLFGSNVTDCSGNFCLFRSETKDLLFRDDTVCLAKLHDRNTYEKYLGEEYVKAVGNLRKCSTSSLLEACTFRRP
Sequence of AKT1 (as used in SPR), P31749 (P31749 whole entry): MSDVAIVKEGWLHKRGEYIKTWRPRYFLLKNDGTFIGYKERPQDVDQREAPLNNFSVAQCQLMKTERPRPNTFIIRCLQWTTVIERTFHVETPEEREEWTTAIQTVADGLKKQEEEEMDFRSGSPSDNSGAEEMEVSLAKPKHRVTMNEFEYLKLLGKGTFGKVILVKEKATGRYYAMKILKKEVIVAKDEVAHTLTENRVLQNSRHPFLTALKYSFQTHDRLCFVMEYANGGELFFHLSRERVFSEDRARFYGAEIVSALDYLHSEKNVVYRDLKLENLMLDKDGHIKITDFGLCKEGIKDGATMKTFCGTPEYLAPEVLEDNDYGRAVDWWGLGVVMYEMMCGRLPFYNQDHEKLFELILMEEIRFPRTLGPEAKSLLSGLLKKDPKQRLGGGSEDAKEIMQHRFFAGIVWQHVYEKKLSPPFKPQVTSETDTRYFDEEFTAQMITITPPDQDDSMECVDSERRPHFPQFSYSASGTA

B1: SYN23-26 (designed binder)
peptide 1: FRGWAHIFFGPHVIYRGGSG
peptide 2: AHKVVPQRQIRHAYNRYGSG
modifications: not fully specified; C-terminal glycine joined to one of the two amines (alpha or epsilon) of a lysine linker; chain 1 pos 20 and chain 2 pos 20: the C-terminal Gly of each 20-mer is joined to the alpha or the epsilon amine of one branching lysine (about 1 nm spacing). The lysine is followed by a C-terminal cysteine whose thiol is biotinylated for the array. The Lys-Cys core is left out of the …
Question: Which Kd (transferrin, P02787 [1]) does the source give for B1 here?
Answer: The Kd was 141 nM.

Question: What about the Kd [2] of the same binder?
Answer: Its Kd is 1 nM.

Question: And the Kd (transferrin, P02787 [3])?
Answer: The Kd was 150 nM.
